Measurements as given in patent publication US20230144608A1, “CLEAVABLE LINKERS” (Xilio Development, Inc., priority 2021, published 2023).

Assays:
[1] = system: 'NAT' (Normal Adjacent Tissue) culture supernatant; test: Cleavage of synthetic peptides in NAT culture supernatant (MSP-MS); format: biochemical; conditions: for Earliest cleaved time point -NAT: NAT culture supernatant, MSP-MS; for NAT + CFZ: cleavage in NAT culture supernatant, carfilzomib (CFZ) in the incubation media, given as fraction x/5
Description: (§1) Sequences comprising cleavage peptides […] (SEQ ID NO: 1) or […] (SEQ ID NO:2) (shown in bold below) were incubated in either ‘NAT’ (Normal Adjacent Tissue) or ‘RCC’ (Renal Cell Carcinoma) culture supernatants, to test the specificity of each peptide’s cleavage. Carfilzomib (CFZ) is also included in the incubation media as an inhibitor of proteosome, to inhibit false positive cleavage.
(§2) To this end, peptide sequencing by mass spectrometry was used to identify cleaved fragments produced for the synthetic peptides shown in the table below, using a published technique called multiplexed substrate profiling by mass spectrometry (MSP-MS) (O’Donoghue A.J. et al. Nat Methods. 2012 Nov;9(11):1095-100.) Cleavages were monitored in these reactions over time, and the peptides found to be cleaved in the earliest time points were deemed to be most sensitive to proteolytic activity in the conditioned media samples.

[2] = system: 'RCC' (Renal Cell Carcinoma) culture supernatant; test: Cleavage of synthetic peptides in RCC culture supernatant (MSP-MS); format: biochemical; conditions: for Earliest cleaved time point -RCC: RCC culture supernatant, MSP-MS; for RCC + CFZ: cleavage in RCC culture supernatant, carfilzomib (CFZ) in the incubation media, given as fraction x/5
Description: as §1, §2

MMP-1 = target: T1, MMP-1 (Homo sapiens, UniProt P03956); test: Cleavage by recombinant protease MMP-1; format: biochemical; conditions: initial rate, recombinant MMP-1
T1 sequence (P03956 100-469): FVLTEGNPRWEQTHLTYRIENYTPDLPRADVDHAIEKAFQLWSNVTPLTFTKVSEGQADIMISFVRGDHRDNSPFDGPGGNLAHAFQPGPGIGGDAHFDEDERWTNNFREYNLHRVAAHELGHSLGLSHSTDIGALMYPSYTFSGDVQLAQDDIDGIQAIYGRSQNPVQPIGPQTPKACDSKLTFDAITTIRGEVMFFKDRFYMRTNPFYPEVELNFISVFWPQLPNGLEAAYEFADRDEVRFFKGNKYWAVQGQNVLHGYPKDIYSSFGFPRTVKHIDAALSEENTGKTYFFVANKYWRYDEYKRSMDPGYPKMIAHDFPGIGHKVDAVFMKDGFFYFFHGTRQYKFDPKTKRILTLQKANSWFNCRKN
Description: (§3) In this example, the peptides library was subjected to cleavage screening by biological matrices, i.e., tumor conditioned media (TCM). The cleavage of the peptides library by plasma was performed for comparison. Each peptide in the library includes a fluorescent mark at one end of its sequence and a quencher on the other end of the sequence. Upon cleavage of the peptide, the quencher is separated from the fluorescent mark, thereby releasing the fluorescent mark. The peptide substrates with the highest ratio of (initial rate of cleavage by tumor conditioned media (TCM) - initial rate of cleavage by plasma) in pmol/min, from cancer patients were identified.
(§4) The peptides with high ratio of initial rate of cleavage by tumor conditioned media (TCM) to initial rate of cleavage by plasma were further screened using recombinant proteases. The peptide substrates that have high initial rates (uM/h) of cleavage by recombinant proteases were identified (Table 4).

MMP-8 = MMP-8 (Homo sapiens, UniProt P22894); test: Cleavage by recombinant protease MMP-8; format: biochemical; conditions: initial rate, recombinant MMP-8
Description: as §3, §4

MMP-10 = MMP-10 (Homo sapiens, UniProt P09238); test: Cleavage by recombinant protease MMP-10; format: biochemical; conditions: initial rate, recombinant MMP-10
Description: as §3, §4

[3] = system: RCC tumor conditioned media (TCM) and plasma; test: Fluorescence-quencher peptide cleavage screening, RCC tumor conditioned media versus plasma; format: biochemical, human; conditions: RCC patients; fluorophore/quencher-labelled peptide
Description: as §3

[4] = system: H&N tumor conditioned media (TCM) and plasma; test: Fluorescence-quencher peptide cleavage screening, H&N tumor conditioned media versus plasma; format: biochemical, human; conditions: Head and Neck cancer patients; fluorophore/quencher-labelled peptide
Description: as §3

MMP-2 = target: T2, MMP-2 (Homo sapiens, UniProt P08253); test: Cleavage by recombinant protease MMP-2; format: biochemical; conditions: initial rate, recombinant MMP-2
T2 sequence (P08253 110-660): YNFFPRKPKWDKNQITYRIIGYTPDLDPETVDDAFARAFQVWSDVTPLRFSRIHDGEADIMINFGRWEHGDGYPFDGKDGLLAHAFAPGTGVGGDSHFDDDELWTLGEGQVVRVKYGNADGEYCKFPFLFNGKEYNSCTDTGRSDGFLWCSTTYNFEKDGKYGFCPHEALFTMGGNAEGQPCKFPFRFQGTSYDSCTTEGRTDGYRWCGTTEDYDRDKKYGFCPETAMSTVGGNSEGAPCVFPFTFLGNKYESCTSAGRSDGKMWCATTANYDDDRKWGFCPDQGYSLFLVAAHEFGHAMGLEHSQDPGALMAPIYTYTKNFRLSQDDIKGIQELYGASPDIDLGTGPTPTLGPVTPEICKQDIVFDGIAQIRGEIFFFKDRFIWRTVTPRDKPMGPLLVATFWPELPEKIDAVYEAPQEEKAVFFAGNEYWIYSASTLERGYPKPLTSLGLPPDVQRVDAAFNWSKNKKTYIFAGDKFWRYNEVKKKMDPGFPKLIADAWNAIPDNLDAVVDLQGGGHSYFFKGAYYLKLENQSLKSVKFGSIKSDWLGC
Description: as §3, §4

MMP-14 = MMP-14 (Homo sapiens, UniProt P50281); test: Cleavage by recombinant protease MMP-14; format: biochemical; conditions: initial rate, recombinant MMP-14
Description: as §3, §4

CatB = CatB (Homo sapiens, UniProt P07858); test: Cleavage by recombinant protease Cathepsin B; format: biochemical; conditions: initial rate
Description: as §3, §4

MMP-9 = MMP-9 (Homo sapiens, UniProt P14780); test: Cleavage by recombinant protease MMP-9; format: biochemical; conditions: initial rate, recombinant MMP-9
Description: as §3, §4

MMP-7 = target: T3, MMP-7 (Homo sapiens, UniProt P09237); test: Cleavage by recombinant protease MMP-7; format: biochemical; conditions: initial rate, recombinant MMP-7
T3 sequence (P09237 95-267): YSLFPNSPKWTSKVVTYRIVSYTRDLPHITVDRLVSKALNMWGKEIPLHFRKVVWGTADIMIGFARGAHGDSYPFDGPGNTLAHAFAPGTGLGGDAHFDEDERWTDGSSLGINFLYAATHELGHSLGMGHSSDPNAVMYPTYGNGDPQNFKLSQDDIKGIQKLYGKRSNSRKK
Description: as §3, §4

[5] = patients who received a 5-minute intravenous (IV) infusion; product label; cited from earlier work

Chain of MMP-10 (P09238 99-476): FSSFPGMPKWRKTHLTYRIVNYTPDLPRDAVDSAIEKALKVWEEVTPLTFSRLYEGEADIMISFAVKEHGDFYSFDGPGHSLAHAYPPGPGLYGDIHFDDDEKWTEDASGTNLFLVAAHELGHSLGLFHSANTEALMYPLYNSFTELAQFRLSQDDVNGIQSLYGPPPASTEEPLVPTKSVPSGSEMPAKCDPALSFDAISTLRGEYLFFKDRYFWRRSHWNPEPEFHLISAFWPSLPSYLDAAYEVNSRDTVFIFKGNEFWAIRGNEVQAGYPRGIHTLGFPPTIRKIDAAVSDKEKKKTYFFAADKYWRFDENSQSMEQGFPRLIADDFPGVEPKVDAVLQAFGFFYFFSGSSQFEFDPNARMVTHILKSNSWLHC
Chain of MMP-8 (P22894 101-467): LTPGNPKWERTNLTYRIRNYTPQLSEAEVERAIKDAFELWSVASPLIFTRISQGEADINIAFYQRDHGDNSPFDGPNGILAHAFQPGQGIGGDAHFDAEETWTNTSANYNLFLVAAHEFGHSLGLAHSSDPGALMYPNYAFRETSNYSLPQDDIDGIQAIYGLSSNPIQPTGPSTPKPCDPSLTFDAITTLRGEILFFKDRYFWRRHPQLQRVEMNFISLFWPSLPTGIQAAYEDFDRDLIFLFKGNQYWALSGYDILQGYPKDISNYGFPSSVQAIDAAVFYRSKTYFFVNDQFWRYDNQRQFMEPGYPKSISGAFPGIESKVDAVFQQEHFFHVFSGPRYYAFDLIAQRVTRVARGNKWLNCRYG
Chain of MMP-9 (P14780 94-707): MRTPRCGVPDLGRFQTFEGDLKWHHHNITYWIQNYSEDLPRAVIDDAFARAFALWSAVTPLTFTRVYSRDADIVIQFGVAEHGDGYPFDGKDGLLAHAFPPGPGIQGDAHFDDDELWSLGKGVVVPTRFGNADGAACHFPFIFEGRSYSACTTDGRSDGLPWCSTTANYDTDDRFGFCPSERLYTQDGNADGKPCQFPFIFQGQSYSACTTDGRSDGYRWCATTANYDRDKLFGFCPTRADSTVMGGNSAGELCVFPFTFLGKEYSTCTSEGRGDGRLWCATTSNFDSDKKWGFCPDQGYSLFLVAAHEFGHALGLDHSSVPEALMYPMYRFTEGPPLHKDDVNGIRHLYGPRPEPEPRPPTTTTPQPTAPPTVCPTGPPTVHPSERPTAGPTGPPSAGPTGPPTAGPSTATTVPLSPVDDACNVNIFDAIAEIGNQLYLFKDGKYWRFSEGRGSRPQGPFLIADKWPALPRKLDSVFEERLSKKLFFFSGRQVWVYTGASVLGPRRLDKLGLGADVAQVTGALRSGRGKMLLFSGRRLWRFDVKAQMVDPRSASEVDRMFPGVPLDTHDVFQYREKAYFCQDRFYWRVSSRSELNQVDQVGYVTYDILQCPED

## RVGPVSL*R*SGSGKI (RVGPVSLRSGSGKI) [Alu-XT-019, * indicates cleavage site]
[1]
  Earliest cleaved time point -NAT: 5 min
  NAT + CFZ: 1/5
[2]
  Earliest cleaved time point -RCC: 15 min
  RCC + CFZ: 5/5

## RPLALWRS [proteolytically cleavable peptide (CP), protease substrate]
MMP-1
  Rates of cleavage by recombinant proteases, MMP-1: 0.1 µM/h
MMP-8
  Rates of cleavage by recombinant proteases, MMP-8: 0.2 µM/h
MMP-10
  Rates of cleavage by recombinant proteases, MMP-10: 0.0 µM/h
[3]
  Initial cleavage rate in tumor conditioned media minus initial cleavage rate in plasma: 0.5 pmol/min
[4]
  Initial cleavage rate difference, tumor conditioned media minus plasma: 0.0 pmol/min
MMP-2
  Rates of cleavage by recombinant proteases, MMP-2: 1.1 µM/h
MMP-14
  Rates of cleavage by recombinant proteases, MMP-14: 0.0 µM/h
CatB
  Rates of cleavage by recombinant proteases, CatB: 0.3 µM/h
MMP-9
  Rates of cleavage by recombinant proteases, MMP-9: 0.2 µM/h
MMP-7
  Rates of cleavage by recombinant proteases, MMP-7: 0.2 µM/h

## PVSLRSGS [proteolytically cleavable peptide (CP), protease substrate]
MMP-1
  Rates of cleavage by recombinant proteases, MMP-1: 0.0 µM/h
MMP-8
  Rates of cleavage by recombinant proteases, MMP-8: 0.1 µM/h
MMP-10
  Rates of cleavage by recombinant proteases, MMP-10: 0.0 µM/h
[3]
  Initial cleavage rate in tumor conditioned media minus initial cleavage rate in plasma: 0.2 pmol/min
[4]
  Initial cleavage rate difference, tumor conditioned media minus plasma: 0.0 pmol/min
MMP-2
  Rates of cleavage by recombinant proteases, MMP-2: 1.9 µM/h
MMP-14
  Rates of cleavage by recombinant proteases, MMP-14: 0.0 µM/h
CatB
  Rates of cleavage by recombinant proteases, CatB: 0.0 µM/h
MMP-9
  Rates of cleavage by recombinant proteases, MMP-9: 6.5 µM/h
MMP-7
  Rates of cleavage by recombinant proteases, MMP-7: 0.2 µM/h

## PANLVAPDP [proteolytically cleavable peptide (CP), protease substrate]
MMP-1
  Rates of cleavage by recombinant proteases, MMP-1: 2.7 µM/h
MMP-8
  Rates of cleavage by recombinant proteases, MMP-8: 7.2 µM/h
MMP-10
  Rates of cleavage by recombinant proteases, MMP-10: 1.8 µM/h
[3]
  Initial cleavage rate in tumor conditioned media minus initial cleavage rate in plasma: 0.1 pmol/min
[4]
  Initial cleavage rate difference, tumor conditioned media minus plasma: 0.4 pmol/min
MMP-2
  Rates of cleavage by recombinant proteases, MMP-2: 31.2 µM/h
MMP-14
  Rates of cleavage by recombinant proteases, MMP-14: 0.7 µM/h
CatB
  Rates of cleavage by recombinant proteases, CatB: 0.0 µM/h
MMP-9
  Rates of cleavage by recombinant proteases, MMP-9: 8.8 µM/h
MMP-7
  Rates of cleavage by recombinant proteases, MMP-7: 2.5 µM/h

## IVGRPRHQGV [proteolytically cleavable peptide (CP), protease substrate]
MMP-1
  Rates of cleavage by recombinant proteases, MMP-1: 0.0 µM/h
MMP-8
  Rates of cleavage by recombinant proteases, MMP-8: 0.0 µM/h
MMP-10
  Rates of cleavage by recombinant proteases, MMP-10: 0.0 µM/h
[3]
  Initial cleavage rate in tumor conditioned media minus initial cleavage rate in plasma: 0.6 pmol/min
[4]
  Initial cleavage rate difference, tumor conditioned media minus plasma: 0.1 pmol/min
MMP-2
  Rates of cleavage by recombinant proteases, MMP-2: 0.0 µM/h
MMP-14
  Rates of cleavage by recombinant proteases, MMP-14: 0.0 µM/h
CatB
  Rates of cleavage by recombinant proteases, CatB: 1.9 µM/h
MMP-9
  Rates of cleavage by recombinant proteases, MMP-9: 0.0 µM/h
MMP-7
  Rates of cleavage by recombinant proteases, MMP-7: 0.0 µM/h

## RQGGM*PKDLYHA*SAKQ (RQGGMPKDLYHASAKQ) [Alu-XT-091, * indicates cleavage site]
[1]
  Earliest cleaved time point -NAT: 5 min
  NAT + CFZ: 1/5
[2]
  Earliest cleaved time point -RCC: 15 min
  RCC + CFZ: 5/5

## RSKYLATA [proteolytically cleavable peptide (CP), protease substrate]
MMP-1
  Rates of cleavage by recombinant proteases, MMP-1: 0.0 µM/h
MMP-8
  Rates of cleavage by recombinant proteases, MMP-8: 0.0 µM/h
MMP-10
  Rates of cleavage by recombinant proteases, MMP-10: 0.0 µM/h
[3]
  Initial cleavage rate in tumor conditioned media minus initial cleavage rate in plasma: 0.3 pmol/min
[4]
  Initial cleavage rate difference, tumor conditioned media minus plasma: 0.0 pmol/min
MMP-2
  Rates of cleavage by recombinant proteases, MMP-2: 0.0 µM/h
MMP-14
  Rates of cleavage by recombinant proteases, MMP-14: 0.0 µM/h
CatB
  Rates of cleavage by recombinant proteases, CatB: 1.9 µM/h
MMP-9
  Rates of cleavage by recombinant proteases, MMP-9: 0.0 µM/h
MMP-7
  Rates of cleavage by recombinant proteases, MMP-7: 0.0 µM/h

## APAGLIVPYN [proteolytically cleavable peptide (CP), protease substrate]
MMP-1
  Rates of cleavage by recombinant proteases, MMP-1: 0.0 µM/h
MMP-8
  Rates of cleavage by recombinant proteases, MMP-8: 0.5 µM/h
MMP-10
  Rates of cleavage by recombinant proteases, MMP-10: 1.6 µM/h
[3]
  Initial cleavage rate in tumor conditioned media minus initial cleavage rate in plasma: 0.2 pmol/min
[4]
  Initial cleavage rate difference, tumor conditioned media minus plasma: 0.1 pmol/min
MMP-2
  Rates of cleavage by recombinant proteases, MMP-2: 29.6 µM/h
MMP-14
  Rates of cleavage by recombinant proteases, MMP-14: 2.1 µM/h
CatB
  Rates of cleavage by recombinant proteases, CatB: 1.0 µM/h
MMP-9
  Rates of cleavage by recombinant proteases, MMP-9: 1.8 µM/h
MMP-7
  Rates of cleavage by recombinant proteases, MMP-7: 2.4 µM/h

## aldesleukin
[5]
  half-life: 1.42 h

## TQKPLGLS [proteolytically cleavable peptide (CP), protease substrate]
MMP-1
  Rates of cleavage by recombinant proteases, MMP-1: 0.0 µM/h
MMP-8
  Rates of cleavage by recombinant proteases, MMP-8: 0.1 µM/h
MMP-10
  Rates of cleavage by recombinant proteases, MMP-10: 0.0 µM/h
[3]
  Initial cleavage rate in tumor conditioned media minus initial cleavage rate in plasma: 0.2 pmol/min
[4]
  Initial cleavage rate difference, tumor conditioned media minus plasma: 0.2 pmol/min
MMP-2
  Rates of cleavage by recombinant proteases, MMP-2: 11.8 µM/h
MMP-14
  Rates of cleavage by recombinant proteases, MMP-14: 0.1 µM/h
CatB
  Rates of cleavage by recombinant proteases, CatB: 0.3 µM/h
MMP-9
  Rates of cleavage by recombinant proteases, MMP-9: 0.3 µM/h
MMP-7
  Rates of cleavage by recombinant proteases, MMP-7: 1.8 µM/h
